Measured values published in patent publication US20210139548A1 (published 2021).
*1 amine or outer side, *2 acyl side, *3 side chain or, on linkers, in order; H or OH if unused. Side-chain parts run from the residue outwards. The star is where a group is joined. C18 diacid = O=C(O)CCCCCCCCCCCCCCCCC(=O)*; γGlu = O=C(O)[C@H](CCC(=O)[*:2])N[*:1]; Isovaleryl = CC(C)CC(=O)*; AEEA = NCCOCCOCC(=O)O

Experiments:
[1] = biological target: T1, human neuropeptide Y2 receptor (human, UniProt P49146 1-381); assay: radioligand competition (125I-PYY(1-36)), hY2R membranes; DMSO stock
T1 construct: whole, on cells; also called hNPY2 receptor; hNPY2-R
T1 sequence (looked up): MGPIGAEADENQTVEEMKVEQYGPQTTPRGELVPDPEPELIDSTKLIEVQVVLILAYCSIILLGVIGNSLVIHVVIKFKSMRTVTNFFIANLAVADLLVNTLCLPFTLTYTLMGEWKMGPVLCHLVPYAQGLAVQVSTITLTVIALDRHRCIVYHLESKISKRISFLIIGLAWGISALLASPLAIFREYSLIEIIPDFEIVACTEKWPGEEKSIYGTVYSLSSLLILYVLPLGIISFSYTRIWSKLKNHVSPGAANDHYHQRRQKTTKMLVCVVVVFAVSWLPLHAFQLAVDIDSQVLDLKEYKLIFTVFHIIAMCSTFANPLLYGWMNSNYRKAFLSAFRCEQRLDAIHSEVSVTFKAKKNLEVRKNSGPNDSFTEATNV
Description: (§1) The filtration RLB assay was carried out in 96-well plates in a final volume of 100 μl per well. Freeze-dried test peptides were dissolved in 100% dimethyl sulfoxide (DMSO) to stock solutions of 1 mM and serial dilutions were performed in assay buffer (50 mM HEPES, 5 mM MgCl₂, 1 mM CaCl₂, pH 7.4) containing 0.2% ovalbumin. […] Next, 80 μL membranes (HTS066M, ChemiSCREEN™ Human Neuropeptide Y2 Receptor Membrane Preparation, CHEMICON) were added to each well to give a final protein concentration of 0.5 μg/well. The plates were sealed and incubated at room temperature for 2 hours in a plate shaker set at 400 rpm. The incubation was stopped by vacuum filtration onto 0.5% poly-ethylene amine (PEI) presoaked GF/C filters using a 96-well FilterMate™ harvester (Perkin Elmer) followed by four washes with 300 μl/well ice-cold wash buffer (50 mM HEPES, 500 mM NaCl, pH7.4). Filter plates were then dried for 60 min at room temperature and the bottom of the plates was sealed with backing tape UniFilter-96. Finally, 50 μl/well scintillation counter cocktail (Microscint20, Packard) was added and the radioactivity was counted in the Packard TopCount NXT scintillation counter. IC₅₀ values (the half maximal inhibitory concentration of the agonist) were calculated by nonlinear regression analysis of sigmoidal dose-response curves.

[2] = biological target: T1, human neuropeptide Y2 receptor; assay: radioligand competition (125I-PYY(1-36)), hNPY2R membranes
Method in brief: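 Commercial human Y2 receptor membranes (0.5 μg protein/well) were incubated with peptide for 2 h at room temperature in 50 mM HEPES, 5 mM MgCl₂, 1 mM CaCl₂, pH 7.4, with 0.2% ovalbumin. Bound radioligand was separated on PEI-soaked GF/C filters and counted by scintillation, and IC₅₀ came from nonlinear sigmoidal regression.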

[3] = biological target: T1, human neuropeptide Y2 receptor; assay: RLB 7: apparent Ki of filtrate after incubation at pH 7.1-7.2
Description: as §1
(§2) Peptides (as TFA salts) were weighed out in a filter unit (Mini-UniPrep Syringeless Filter 0.45 μm, Whatman), and 0.1 M sodium diphosphate buffer at pH 6.4 or 7.4, respectively, or 0.2 M TRIS buffer at pH 8.3 was added to achieve 10 mg/ml final concentration. The peptide was (partially) dissolved by shaking the filter unit horizontally at approx. 400 rpm for 2 hours at room temperature. The sample was filtered to remove any insoluble particles.

human NPY4 receptor = human NPY4 receptor (human, UniProt P50391 1-375); assay: cell-based or functional assay
Sequence of human NPY4 receptor (P50391 whole entry): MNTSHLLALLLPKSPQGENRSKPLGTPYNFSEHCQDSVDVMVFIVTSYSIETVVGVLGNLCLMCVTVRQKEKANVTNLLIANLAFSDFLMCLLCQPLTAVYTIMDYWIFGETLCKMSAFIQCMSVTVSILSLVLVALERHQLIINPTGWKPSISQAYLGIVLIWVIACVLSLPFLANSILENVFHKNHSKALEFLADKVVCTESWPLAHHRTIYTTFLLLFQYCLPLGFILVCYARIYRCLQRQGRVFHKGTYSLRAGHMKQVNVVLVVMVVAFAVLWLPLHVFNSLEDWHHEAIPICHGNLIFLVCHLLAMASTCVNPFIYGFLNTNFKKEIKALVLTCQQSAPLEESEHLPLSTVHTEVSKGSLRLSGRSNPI

[4] = biological target: T1, human neuropeptide Y2 receptor; assay: cell-based or functional assay
human NPY1 receptor = biological target: T2, human NPY1 receptor (human, UniProt P25929 1-384); assay: cell-based or functional assay
T2 sequence (looked up): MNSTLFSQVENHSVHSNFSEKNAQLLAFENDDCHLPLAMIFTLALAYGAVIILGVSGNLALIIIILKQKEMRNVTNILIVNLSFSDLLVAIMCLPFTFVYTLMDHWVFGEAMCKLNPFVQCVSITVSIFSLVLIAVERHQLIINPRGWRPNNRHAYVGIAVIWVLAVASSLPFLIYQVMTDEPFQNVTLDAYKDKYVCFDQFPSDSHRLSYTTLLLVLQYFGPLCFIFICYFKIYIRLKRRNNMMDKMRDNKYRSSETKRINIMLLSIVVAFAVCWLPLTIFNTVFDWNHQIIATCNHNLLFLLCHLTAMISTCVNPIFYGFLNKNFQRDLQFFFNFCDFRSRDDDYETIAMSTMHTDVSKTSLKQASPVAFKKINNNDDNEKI

human NPY5 receptor = biological target: T3, human NPY5 receptor (human, UniProt Q15761 1-445); assay: cell-based or functional assay
T3 sequence (looked up): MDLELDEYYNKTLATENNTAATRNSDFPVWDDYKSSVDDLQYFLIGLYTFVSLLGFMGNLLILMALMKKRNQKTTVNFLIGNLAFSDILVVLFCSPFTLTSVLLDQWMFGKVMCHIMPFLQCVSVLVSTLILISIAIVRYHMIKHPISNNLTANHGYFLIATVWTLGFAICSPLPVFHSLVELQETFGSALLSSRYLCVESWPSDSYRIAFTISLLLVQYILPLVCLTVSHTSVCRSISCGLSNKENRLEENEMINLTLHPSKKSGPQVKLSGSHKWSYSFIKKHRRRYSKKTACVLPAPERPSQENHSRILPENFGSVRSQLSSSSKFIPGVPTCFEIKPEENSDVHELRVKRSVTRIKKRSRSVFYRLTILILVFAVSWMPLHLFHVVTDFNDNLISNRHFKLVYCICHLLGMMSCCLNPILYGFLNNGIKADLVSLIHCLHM

[5] = biological target: T1, human neuropeptide Y2 receptor; assay: ratio of apparent Ki, pH 8.1-8.2 over pH 7.1-7.2
Description: as §1, §2

[6] = biological target: T1, human neuropeptide Y2 receptor; assay: RLB 8: apparent Ki of filtrate after incubation at pH 8.1-8.2
Description: as §1, §2

[7] = biological target: T1, human neuropeptide Y2 receptor; assay: ratio of apparent Ki, pH 6.1-6.2 over pH 7.1-7.2
Description: as §1, §2

[8] = biological target: T1, human neuropeptide Y2 receptor; assay: RLB 6: apparent Ki of filtrate after incubation at pH 6.1-6.2
[9] = biological target: T1, human neuropeptide Y2 receptor; assay: cell-based or functional assay; remark: listed apart in the source

Question: How did the Ki [1] turn out when Isovaleryl-APAK([AEEA-AEEA-γGlu-C18 diacid])PEEDASPEEIQRYYVSLRHYYNWLTRQRY-NH2 [Compound 23] was run?
Answer: 4.9 nM

Question: And the Ki [2]?
Answer: 0.63 nM

Question: And the Ki [3]?
Answer: 6.3 nM

Question: What about the “EC50 (HTRF cAMP Gi assay)” value (human NPY4 receptor) of the same binder?
Answer: > 5 µM

Question: And the “EC50 (HTRF cAMP Gi assay)” value [4]?
Answer: 0.15 nM

Question: And the “EC50 (HTRF cAMP Gi assay)” value (human NPY1 receptor)?
Answer: > 5 µM

Question: And the “EC50 (HTRF cAMP Gi assay)” value (human NPY5 receptor)?
Answer: > 5 µM

Question: What about the “RLB ratio (RLB8/RLB7)” value [5] of the same binder?
Answer: 1

Question: And the Ki [6]?
Answer: 6.3 nM

Question: What about the “RLB ratio (RLB6/RLB7)” value [7] of the same binder?
Answer: 1

Question: And the Ki [8]?
Answer: 6.3 nM

Question: What does the source list for Isovaleryl-APAK([AEEA-AEEA-γGlu-C18 diacid])PEEDATPEELQRYYVSLRHYYNWLTRQRY-NH2 [Compound 106]?
Answer: Ki [1]: 6 nM; Ki [2]: 0.66 nM; Ki [3]: 9.3 nM; EC50 (HTRF cAMP Gi assay) (human NPY4 receptor): > 5 µM; EC50 (HTRF cAMP Gi assay) [4]: 0.173 nM; EC50 (HTRF cAMP Gi assay) (human NPY1 receptor): > 5 µM; EC50 (HTRF cAMP Gi assay) (human NPY5 receptor): > 5 µM; RLB ratio (RLB8/RLB7) [5]: 0.8; Ki [6]: 7.5 nM; RLB ratio (RLB6/RLB7) [7]: 0.8; Ki [8]: 7.7 nM

B1: Ref. 3 (peptide)
peptide: Isovaleryl-RPEK([AEEA-AEEA-γGlu-C18 diacid])PGEDASPEELQRYYVSLRAYYNWLTRQRY-NH2
SMILES: CC(C)CC(=O)N[C@@H](CCCNC(=N)N)C(=O)N1CCC[C@H]1C(=O)N[C@@H](CCC(=O)O)C(=O)N[C@@H](CCCCNC(=O)COCCOCCNC(=O)COCCOCCNC(=O)CC[C@H](NC(=O)CCCCCCCCCCCCCCCCC(=O)O)C(=O)O)C(=O)N1CCC[C@H]1C(=O)NCC(=O)N[C@@H](CCC(=O)O)C(=O)N[C@@H](CC(=O)O)C(=O)N[C@@H](C)C(=O)N[C@@H](CO)C(=O)N1CCC[C@H]1C(=O)N[C@@H](CCC(=O)O)C(=O)N[C@@H](CCC(=O)O)C(=O)N[C@@H](CC(C)C)C(=O)N[C@@H](CCC(N)=O)C(=O)N[C@@H](CCCNC(=N)N)C(=O)N[C@@H](Cc1ccc(O)cc1)C(=O)N[C@@H](Cc1ccc(O)cc1)C(=O)N[C@H](C(=O)N[C@@H](CO)C(=O)N[C@@H](CC(C)C)C(=O)N[C@@H](CCCNC(=N)N)C(=O)N[C@@H](C)C(=O)N[C@@H](Cc1ccc(O)cc1)C(=O)N[C@@H](Cc1ccc(O)cc1)C(=O)N[C@@H](CC(N)=O)C(=O)N[C@@H](Cc1c[nH]c2ccccc12)C(=O)N[C@@H](CC(C)C)C(=O)N[C@H](C(=O)N[C@@H](CCCNC(=N)N)C(=O)N[C@@H](CCC(N)=O)C(=O)N[C@@H](CCCNC(=N)N)C(=O)N[C@@H](Cc1ccc(O)cc1)C(N)=O)[C@@H](C)O)C(C)C
Question: Which results are given for B1?
Answer: Ki [2]: 1.69 nM; EC50 (hY2 cAMP, HTRF cAMP Gi assay) [9]: 0.375 nM

B2: Compound 29 (peptide)
peptide: Isovaleryl-APEK([AEEA-AEEA-γGlu-C18 diacid])PEAPASPEELQRYYVELRHYYNWLTRQRY-NH2
SMILES: CC(C)CC(=O)N[C@@H](C)C(=O)N1CCC[C@H]1C(=O)N[C@@H](CCC(=O)O)C(=O)N[C@@H](CCCCNC(=O)COCCOCCNC(=O)COCCOCCNC(=O)CC[C@H](NC(=O)CCCCCCCCCCCCCCCCC(=O)O)C(=O)O)C(=O)N1CCC[C@H]1C(=O)N[C@@H](CCC(=O)O)C(=O)N[C@@H](C)C(=O)N1CCC[C@H]1C(=O)N[C@@H](C)C(=O)N[C@@H](CO)C(=O)N1CCC[C@H]1C(=O)N[C@@H](CCC(=O)O)C(=O)N[C@@H](CCC(=O)O)C(=O)N[C@@H](CC(C)C)C(=O)N[C@@H](CCC(N)=O)C(=O)N[C@@H](CCCNC(=N)N)C(=O)N[C@@H](Cc1ccc(O)cc1)C(=O)N[C@@H](Cc1ccc(O)cc1)C(=O)N[C@H](C(=O)N[C@@H](CCC(=O)O)C(=O)N[C@@H](CC(C)C)C(=O)N[C@@H](CCCNC(=N)N)C(=O)N[C@@H](Cc1c[nH]cn1)C(=O)N[C@@H](Cc1ccc(O)cc1)C(=O)N[C@@H](Cc1ccc(O)cc1)C(=O)N[C@@H](CC(N)=O)C(=O)N[C@@H](Cc1c[nH]c2ccccc12)C(=O)N[C@@H](CC(C)C)C(=O)N[C@H](C(=O)N[C@@H](CCCNC(=N)N)C(=O)N[C@@H](CCC(N)=O)C(=O)N[C@@H](CCCNC(=N)N)C(=O)N[C@@H](Cc1ccc(O)cc1)C(N)=O)[C@@H](C)O)C(C)C
Question: How did the Ki [1] turn out when B2 was run?
Answer: 4.6 nM

Question: What about the Ki [2] of the same binder?
Answer: 0.29 nM

Question: And the Ki [3]?
Answer: 4.4 nM

Question: What about the “RLB ratio (RLB8/RLB7)” value [5] of the same binder?
Answer: 0.5

Question: And the Ki [6]?
Answer: 2.3 nM

Question: And the “RLB ratio (RLB6/RLB7)” value [7]?
Answer: 0.9

Question: And the Ki [8]?
Answer: 3.8 nM

Question: For Isovaleryl-APEK([AEEA-AEEA-γGlu-C18 diacid])PEEDASPEEIQRYYVSLRHYYNWLTRQRY-NH2 [Compound 84], which Ki [1] is on record?
Answer: 3.5 nM

Question: And the Ki [2]?
Answer: 1.19 nM

Question: What about the Ki [8] of the same binder?
Answer: 6.6 nM

Question: Isovaleryl-APEK([AEEA-AEEA-γGlu-C18 diacid])PEADASPEEIQRYYVSLRHYYNWLTRQRY-NH2 [Compound 53] was tested. Which Ki [1] did it give?
Answer: 2 nM

Question: And the Ki [2]?
Answer: 0.24 nM

Question: What about the Ki [3] of the same binder?
Answer: 3.1 nM

Question: And the “EC50 (HTRF cAMP Gi assay)” value (human NPY4 receptor)?
Answer: > 5 µM

Question: What about the “EC50 (HTRF cAMP Gi assay)” value [4] of the same binder?
Answer: 0.119 nM

Question: What about the “EC50 (HTRF cAMP Gi assay)” value (human NPY1 receptor) of the same binder?
Answer: > 5 µM

Question: What about the “EC50 (HTRF cAMP Gi assay)” value (human NPY5 receptor) of the same binder?
Answer: > 5 µM

Question: What about the “RLB ratio (RLB8/RLB7)” value [5] of the same binder?
Answer: 0.8

Question: And the Ki [6]?
Answer: 2.5 nM

Question: And the “RLB ratio (RLB6/RLB7)” value [7]?
Answer: 1.1

Question: And the Ki [8]?
Answer: 3.4 nM

Question: With Isovaleryl-APAK([AEEA-AEEA-γGlu-C18 diacid])PEEDASPEELQRYYVSLRHYYNWLTRQRY-NH2 [Compound 203] as the binder, how does the Ki [1] read?
Answer: 3 nM

Question: What about the Ki [2] of the same binder?
Answer: 0.75 nM

Question: And the Ki [3]?
Answer: 11.1 nM

Question: What about the Ki [8] of the same binder?
Answer: 4.6 nM
